Source: patent publication US12456543B2, “Enzymes” (UNIVERSITY COURT OF THE UNIVERSITY OF ST ANDREWS, priority 2018, dated 2025)

Columns and labels:
[1] = Halogenase activity of Dsg205 and Dsg701 against 600 member compound library, LC-MSMS assay; assay type: biochemical; conditions: 600 member compound library
[2] = Halogenation of the initial 300 compound library by purified halogenase, LCMS; assay type: biochemical; conditions: out of 300 compounds
[3] = engineered to expand substrate scope; cited from earlier work

Row | Molecule | members of the library halogenated (substrates accepted) [1] | compounds of the initial 300 compound library halogenated [2] | yields after directed evolution and rational design [3]
1 | Dsg205: halogenase from Trichoderma virens Gy29-8 GenBank: EHK23009.1 (protein, left off: small tags and cut ends) MAIPEKCTVLVVGGGPAGSYAAAALAREGIDTVILEADKFPRYHIGESMLASMRHFLRFIDVDSVFDSYGFTKKVGAAFKLNPKKREGYTDFLAAGGPENYAWNVVRSEADQLLFQHAAKSGAKAFDGVQVKSINFIDVPYKGPGQLPHDYPGRPVSATYVQKDDNTPREIKFDYIIDASGRVGILSTKHLKNRKYNQGLKNVATWGYWKGAGAYGKGTPRENSPFFEALQDESGWAWLIPLHNGTASVGIVMNQKMSVERKTQAGSPDSKTFYLDCLKELAPDLTKLMENGELITDIKSAADYSYSASGYAIPYARIAGDAGCFIDPYFSSGVHLAFVGGLSAAATIAAAIRGDCSEEAAADWHSKKIADAYIRFLLVVLSAYRQIRSQEEPVLSDINEDNFDRAFAFFRPVIQGIADVDTKLSQDELRKTLEFCSNAFEPVKPEDRTAMLEKLGKDPATAYQVDLSDQQRTVVDHIRARQMMRTEDTININSFGTDSINGFVPNLKRGELGLVPAKV | 33 | 3 | –
2 | PrnA: tryptophan 7-halogenase, first step in pyrrolnitrin biosynthesis (protein, UniProt P95480 1-538, looked up) Tryptophan 7-halogenase PrnA: MNKPIKNIVIVGGGTAGWMAASYLVRALQQQANITLIESAAIPRIGVGEATIPSLQKVFFDFLGIPEREWMPQVNGAFKAAIKFVNWRKSPDPSRDDHFYHLFGNVPNCDGVPLTHYWLRKREQGFQQPMEYACYPQPGALDGKLAPCLSDGTRQMSHAWHFDAHLVADFLKRWAVERGVNRVVDEVVDVRLNNRGYISNLLTKEGRTLEADLFIDCSGMRGLLINQALKEPFIDMSDYLLCDSAVASAVPNDDARDGVEPYTSSIAMNSGWTWKIPMLGRFGSGYVFSSHFTSRDQATADFLKLWGLSDNQPLNQIKFRVGRNKRAWVNNCVSIGLSSCFLEPLESTGIYFIYAALYQLVKHFPDTSFDPRLSDAFNAEIVHMFDDCRDFVQAHYFTTSRDDTPFWLANRHDLRLSDAIKEKVQRYKAGLPLTTTSFDDSTYYETFDYEFKNFWLNGNYYCIFAGLGMLPDRSLPLLQHRPESIEKAEAMFASIRREAERLRTSLPTNYDYLRSLRDGDAGLSRGQRGPKLAAQESL | – | – | 15-65%
